In patent US12129222B2, “Production of bitter principle derivatives” (Julius-Maximilians-Universitaet Wuerzburg, priority 2016, dated 2024):
Non-standard residues stand in square brackets, D forms with d.

Target: MMP-8 (Homo sapiens, UniProt P22894)
Assay: Enzymatic peptide cleavage by matrix metalloproteinases
Type: biochemical
Details: after cleavage from the resin; activated MMP, 1 h at 37° C., pH 7.0; LC-MS
Method: (§1) For that, a 2-3 hour activation of the pre-MMP by p-aminophenyl mercury acetate (APMA 10 mM in 0.1 M NaOH) in a ratio of 10:1 (MMP:APMA v/v) takes place at 37° C. Subsequently, the activated MMP is added to the peptides dissolved in buffer (200 mM NaCl, 50 mM Tris-HCl, 5 mM CaCl2, 1 μM ZnCl2, 0.05% BRIJ® 35, 0.05% NaN3, pH 7.0) in defined concentrations (9 ng/ml, 45 ng/ml, 90 ng/ml, 225 ng/ml, 450 ng/ml, and 900 ng/ml) and incubated for 1 h at 37° C. The reaction is stopped by separation/filtration of the MMP by centrifugation or addition of 10 equivalents of EDTA (250 mM). The cleavage products are analyzed by liquid chromatography with masse spectrometry coupling (LC-MS).
as §1, with “concentrations” for “concentrations (9 ng/ml, 45 ng/ml, 90 ng/ml, 225 ng/ml, 450 ng/ml, and 900 ng/ml)”, “mass” for “masse”

Chain of MMP-8 (P22894 101-467, species assumed): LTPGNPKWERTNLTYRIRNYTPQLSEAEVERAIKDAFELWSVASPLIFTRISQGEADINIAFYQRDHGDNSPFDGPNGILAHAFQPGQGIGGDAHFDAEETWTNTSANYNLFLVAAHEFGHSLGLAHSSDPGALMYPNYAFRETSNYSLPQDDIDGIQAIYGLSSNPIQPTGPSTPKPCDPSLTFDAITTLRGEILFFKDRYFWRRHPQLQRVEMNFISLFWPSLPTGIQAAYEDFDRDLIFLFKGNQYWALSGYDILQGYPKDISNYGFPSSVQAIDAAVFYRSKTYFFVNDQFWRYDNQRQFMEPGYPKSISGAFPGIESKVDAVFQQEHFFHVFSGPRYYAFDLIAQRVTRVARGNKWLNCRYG

cleavage by matrix metalloproteinases (MMP) such as MMP-8: specifically cleaved
Substance: NH2-G-p-q-G-I-A-G-q-Q—COOH: peptide modified by replacing L by D amino acids (small letters mean D-amino acids) (H-G[dP][dQ]GIAG[dQ]Q-OH; SMILES CC[C@H](C)[C@H](NC(=O)CNC(=O)[C@@H](CCC(N)=O)NC(=O)[C@H]1CCCN1C(=O)CN)C(=O)N[C@@H](C)C(=O)NCC(=O)N[C@H](CCC(N)=O)C(=O)N[C@@H](CCC(N)=O)C(=O)O)
